This is an account of results in patent US20190091326A1.

Where only a bound is given, the exact number is not on record here.

Assay [1] deals with 1209 V1/V2/V3/C3 scaffold grown in kifunensine. Nature of the assay: ELISA, mAb titrated on scaffold, absorbance 492 nm; curve 509 (1209 kif).
Assay [2] deals with A244-rgp120 grown in kifunensine treated cells (HIV-1 isolate A244). Kind of assay: ELISA, mAb titrated on gp120, absorbance 492 nm; curve 496 (A244 gp120 kif).
Assay [3] deals with A244-rgp120 grown in GnTI- cells (HIV-1 isolate A244). Kind of assay: ELISA, mAb titrated on gp120, absorbance 492 nm; curve 495 (A244 gp120 GNTI-).

“PGT128 broadly neutralizing monoclonal antibody”: the values for the EC50 in assay [1], in assay [2] and in assay [3] were 0.09 µg/mL, less than 0.01 µg/mL and less than 0.01 µg/mL, respectively.
